Results as given in patent publication US20100015126A1, “Methods of Binding of Cross-Beta Structures By Chaperones” (priority 2006, published 2010).

Target: T1, human BiP (Homo sapiens, UniProt P11021)
T1 construct: The human BiP gene except the signal peptide encoding region was obtained from Geneart (Germany); linker […]; made in house; host or cells: HEK 293E cells, transient transfection, PABC674 vector; secreted into the medium
Assay: Competition ELISA: BiP binding to misfolded proteins under influence of crossbeta binding compounds
Details: fixed sub-optimal BiP concentration
Experimental: Binding of chaperones to immobilized (misfolded) protein ligands was determined using an enzyme linked immuno sorbent assay (ELISA) approach. For this purpose 50 μl/well of potential ligands at indicated concentrations or coat buffer only for control and background measurement purposes, were coated overnight at 4° C. or coated for 1 h at room temperature, with motion, in 50 mM NaHCO3 pH 9.6 (coat buffer). In general, ligands were coated at 5 μg/ml, unless stated otherwise. For example, BiP binding peptides 6BB# and oxLDL were coated at 50 μg/ml. Native haemoglobin (Sigma-Aldrich, H7379), albumin, IgIV Gammagard and ovalbumin controls were prepared from lyophilized stocks. The controls were prepared by dissolving lyophilized proteins at 1 mg/ml in PBS upon resuspending by pipetting, followed by a 30 minutes period at the roller device, at room temperature. The protein solutions were centrifuged for 10 minutes at 16,000*g and diluted in coat buffer. After coating the plates were washed at least three times with 50 mM Tris-HCl pH 7.3, 150 mM NaCl, 0.1% v/v Tween20, and blocked with Blocking reagent (Roche Diagnostics, Almere, The Netherlands; 11112589001), for 1 h at room temperature, with motion. Plates were washed three times and incubated in triplicate with indicated chaperone dilution series, at 50 μl/well, for 1 h at room temperature, with constant motion. For HSP90, 5 mM DTT is incorporated in the binding buffer (PBS/0.1% Tween20) to avoid unwanted disulfide bond formation of the HSP90. […] After four wash cycles, secondary antibodies were added to the wells when required, 50 μl/well, for 45′ at room temperature, with motion. RAMPO and SWARPO were used at 3000 times dilution. […] In a second experiment with more immobilized misfolded proteins and controls, the detection of bound HSP90 with the mix of two anti-HSP90 antibodies was achieved by mixing 1:1500 SWARPO with 1:3000 RAMPO. After 5 washes with wash buffer followed by two washes with PBS, binding of antibodies was assessed. […] Plates were read at 450 nm. Triplicates were averaged and standard deviations calculated. […] Subsequently, sub-optimal concentrations of chaperones for binding to misfolded protein ligands are determined, and these concentrations are used for inhibition studies.
In a subsequent study we analysed whether BiP interacts directly with the crossbeta structure, by performing ELISA binding studies with a fixed sub-optimal concentration of BiP and concentration series of crossbeta binding compounds. […]

T1 sequence (P11021 19-654): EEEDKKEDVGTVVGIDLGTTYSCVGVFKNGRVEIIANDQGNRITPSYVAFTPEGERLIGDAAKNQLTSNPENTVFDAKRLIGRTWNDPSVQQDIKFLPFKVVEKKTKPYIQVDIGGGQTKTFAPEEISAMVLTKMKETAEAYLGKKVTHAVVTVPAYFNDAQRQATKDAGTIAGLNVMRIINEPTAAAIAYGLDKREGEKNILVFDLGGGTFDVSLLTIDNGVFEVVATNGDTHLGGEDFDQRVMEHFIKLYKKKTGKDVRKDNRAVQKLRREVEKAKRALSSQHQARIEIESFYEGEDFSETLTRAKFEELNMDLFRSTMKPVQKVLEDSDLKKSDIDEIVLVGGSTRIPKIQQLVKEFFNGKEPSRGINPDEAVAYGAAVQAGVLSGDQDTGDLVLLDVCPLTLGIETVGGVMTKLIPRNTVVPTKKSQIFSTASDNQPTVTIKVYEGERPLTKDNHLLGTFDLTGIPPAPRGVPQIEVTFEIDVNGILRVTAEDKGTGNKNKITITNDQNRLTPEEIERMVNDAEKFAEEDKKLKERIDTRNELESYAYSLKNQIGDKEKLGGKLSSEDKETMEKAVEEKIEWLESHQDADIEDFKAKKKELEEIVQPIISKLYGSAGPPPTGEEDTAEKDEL

B1: dOVA standard: heat-denatured chicken ovalbumin (protein)
chain: GSIGAASMEFCFDVFKELKVHHANENIFYCPIAIMSALAMVYLGAKDSTRTQINKVVRFDKLPGFGDSIEAQCGTSVNVHSSLRDILNQITKPNDVYSFSLASRLYAEERYPILPEYLQCVKELYRGGLEPINFQTAADQARELINSWVESQTNGIIRNVLQPSSVDSQTAMVLVNAIVFKGLWEKAFKDEDTQAMPFRVTEQESKPVQMMYQIGLFRVASMASEKMKILELPFASGTMSMLVLLPDEVSGLEQLESIINFEKLTEWTSSNVMEERKIKVYLPRMKMEEKYNLTSVLMAMGITDVFSSSANLSGISSAESLKISQAVHAAHAEINEAGREVVGSAEAGVDAASVSEEFRADHPFLFCIKHIATNAVLFFGRCVSP
- Influence of K2P tPA on interaction of BiP with misfolded protein (10 mM ε-amino caproic acid): −
- Influence of tPA on interaction of BiP with misfolded protein (10 mM ε-amino caproic acid): ↓ (a ↓ sign refers to inhibited abolished binding of BiP)
- Influence of Congo red on interaction of BiP with misfolded protein (concentration series of Congo red): ↓ (a ↓ sign refers to inhibited abolished binding of BiP)
- Influence of ThS on interaction of BiP with misfolded protein (concentration series of ThS): ↓ (a ↓ sign refers to inhibited abolished binding of BiP)
